Assay results from patent US11142588B2, “Polypeptides which bind C-X-C chemokine receptor type 4 (CXCR4) and methods of treating or reducing the risk of fibrosis and cancer” (AdAlta Limited, priority 2015, dated 2021).
“And” between values parts separate entries of the source, which are not always exact repeats. Equal values may be shown once.

B1: AM3-523: affinity matured CXCR4 i-body, SEQ ID NO: 56 (protein)
chain: LQVDIVPSQGEISVGESKFFLCQVAGSGSHMRISWFSPNGEKLTPNQQRISVVWNDDSSSTLTIYNANIDDAGIYKCVVWVGGYRHRALVLGEATVNVKIFQ
modifications: protein sequence encoding AM3-523

What was measured:
[1] = Bleomycin mouse model of pulmonary fibrosis; format: in vivo
Method in brief: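 Mice received bleomycin 2 U/mouse, with i-body dosed just before; at day 4, BAL SDF-1, lung fibrocytes (CD45+ CXCR4+ Collagen1+ by flow cytometry of collagenase/dispase suspensions), Sircol collagen staining and Col-1, Col-3, SDF-1 RNA were assessed. A separate 21-day bleomycin study tested PEGylated i-body.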

[2] = Laser induced choroidal neovascularisation model; format: in vivo, mouse
Method: The laser induced choroidal neovascularisation (CNV) is a well characterised and accepted model of choroidal neovascularisation (Fletcher E L et al. (2011) Prog Mol Biol Transl Sci 100:211-286). It is also a rapid method for determining the efficacy of potential treatments that target angiogenesis and fibrosis. Briefly, up to four laser spots are applied to the posterior eye using a continuous wave photocoagulation laser ([…] diode). The laser energy is high enough to create a break in Bruch's membrane. During the following 7-14 days, growth of blood vessels from the choroid into the retina occurs, and is quantified either immuocytochemically, or using fluorescein angiography.
Mice were treated as below: • Group 1 (n=10): laser both eyes-vehicle in one eye; i-body in the other • Group 2 (n=10): Laser one eye (no i-body); other eye unlasered. • The i-body drug was injected intravitreally in 1 μl volume at a concentration up to 20 mg/ml.
The expression of genes associated with angiogenesis and fibrosis was examined. Total RNA was isolated from the retina and RPE/choroidal samples using commercial spin columns (RNeasy, Qiagen, Valencia Calif.). A PCR gene array was used to assess the expression of 84 genes involved angiogenesis or fibrosis (Qiagen). Briefly, total RNA samples from untreated, laser treated eyes and untreated fellow eyes (n=9 each group, each 25 ng) were pooled within their respective treatment groups (3 independent experiments containing 3 pooled samples), reversed transcribed (RT2 first strand, Qiagen) and then underwent pre-amplification of the cDNA target templates (RT2 pre-AMP, Qiagen). Samples were added to a commercial mastermix (RT2 SYBR green mastermix, Qiagen) and amplified for 40 cycles (ABI 7900HT, Life Technologies, Grand Island N.Y.). Three independent arrays were performed for each treatment group. The data were analysed using delata delta Ct (ΔΔCt), expressed as fold change and regulation assessed using an unpaired t-test.

CXCR4 [3] = target: T1, CXCR4 (Homo sapiens, UniProt P61073); experiment: Calcium flux assay (Screen Quest Fluo-8, FLIPR) in antagonist mode; format: cell-based; settings: SDF-1 at EC80
T1 sequence (P61073 whole entry): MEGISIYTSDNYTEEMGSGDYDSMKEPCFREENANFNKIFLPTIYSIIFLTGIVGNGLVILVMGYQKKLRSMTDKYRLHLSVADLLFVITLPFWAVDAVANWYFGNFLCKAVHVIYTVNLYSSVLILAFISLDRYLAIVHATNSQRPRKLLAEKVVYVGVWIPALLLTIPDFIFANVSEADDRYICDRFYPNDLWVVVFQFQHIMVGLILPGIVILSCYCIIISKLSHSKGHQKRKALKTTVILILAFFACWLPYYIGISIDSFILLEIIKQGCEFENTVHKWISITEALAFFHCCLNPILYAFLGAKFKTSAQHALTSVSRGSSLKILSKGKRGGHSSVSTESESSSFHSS
Method: Inhibition of Ca2+ influx by controls or i-bodies (IC50) was then determined.
Mammalian cells stably expressing human CXCR4 receptor were produced in-house by Multispan, Inc (catalog no. C1004-1). Control agonist used was SDF-1 (Peprotech, Cat #300-28A).
Cells were seeded in 384-well plate at an appropriate density and cultured overnight. Calcium assay was conducted according to the manufacturer's protocols. The calcium dye loading buffer was added to the cells and incubated for one hour at 37° C. Calcium flux was monitored for 120 seconds with compound injected into the wells at 19th second. In antagonist mode, carrier or compounds were preincubated with the cells for 30 minutes before calcium flux measurement with the control agonist at EC80 concentration obtained from dose-response curve.

CXCR4 [4] = target: T1, CXCR4; experiment: HitHunter cAMP assay in antagonist mode; format: cell-based; settings: SDF-1 at EC80, forskolin 15 μM, read-out: cAMP inhibition IC50
From the text: Hit Hunter® cAMP assays monitor the activation of a GPCR via an inhibitory regulative G-protein (Gi) and a stimulative regulative G-protein (Gs) secondary messenger signaling in a homogenous, non-imaging assay format using a technology developed by DiscoveRx called Enzyme Fragment Complementation (EFC) with β-galactosidase (β-Gal) as the functional reporter. The enzyme is split into two complementary portions: EA for Enzyme Acceptor and ED for Enzyme Donor. ED is fused to cAMP and in the assay competes with cAMP generated by cells for binding to a cAMP-specific antibody. Active β-Gal is formed by complementation of exogenous EA to any unbound ED-cAMP.
cAMP Hunter cell lines were expanded from freezer stocks according to standard procedures. The cells were then seeded in a total volume of 20 μL into white walled, 384-well microplates and incubated at 37° C. for the appropriate time prior to testing. cAMP modulation was determined using the DiscoveRx HitHunter cAMP XS+ assay according to manufacturer's instructions. […]
After appropriate compound incubation, assay signal was generated through incubation with 20 μL cAMP XS+ ED/CL lysis cocktail for one hour followed by incubation with 20 μL cAMP XS+ EA reagent for three hours at room temperature. Microplates were read following signal generation with a PerkinElmer Envision™ instrument for chemiluminescent signal detection.

[5] = target: T2, human CXCR4 (CXCR4 positive lipoparticles) (Homo sapiens, UniProt P61073); experiment: Biacore SPR kinetic binding to immobilised CXCR4 lipoparticles
T2 construct: purchased Integral Molecular LEV-101B
T2 sequence (P61073 whole entry): as above

CCR4 = target: T3, CCR4 (Homo sapiens, UniProt P51679); experiment: PathHunter (DiscoverX) β-arrestin assay, CCR4; format: cell-based
T3 sequence (P51679 1-360): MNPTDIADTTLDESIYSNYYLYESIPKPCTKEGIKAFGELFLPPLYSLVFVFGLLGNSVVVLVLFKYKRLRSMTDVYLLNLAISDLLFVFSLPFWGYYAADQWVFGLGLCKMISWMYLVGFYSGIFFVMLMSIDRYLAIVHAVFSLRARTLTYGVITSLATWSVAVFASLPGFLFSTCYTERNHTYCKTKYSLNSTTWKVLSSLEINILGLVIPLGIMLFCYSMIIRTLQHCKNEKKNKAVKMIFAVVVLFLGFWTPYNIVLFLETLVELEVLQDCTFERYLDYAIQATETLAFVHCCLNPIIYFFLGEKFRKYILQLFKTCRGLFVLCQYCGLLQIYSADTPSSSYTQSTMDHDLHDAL
Method: (FIG. 9) The PathHunter® β-Arrestin assay (DiscoveRx) was performed according to the manufacturer's protocol. Cells were seeded into white walled, 384-well tissue culture-treated microplates (Corning) and normalized at 5,000 cells (or 10,000 cells for CXCR4) in a total volume of […]. Cell growth was at 37° C. (5% CO2, 95% relative humidity). […] Agonists were then added at the EC80 concentration and incubation was continued at 37° C. for 90 min (or 180 min for CCR1). Assay signal was generated through a single addition of 15 μL (50% v/v) of PathHunter Detection reagent cocktail, followed by 1 h incubation at room temperature. Microplates were read following signal generation with a PerkinElmer Envision instrument for chemiluminescent signal detection of relative light units (RLU).

[6] = intravitreal, 1 μl up to 20 mg/ml
[7] = CXCR4 expressed on lipoparticles (Table 4)

| Molecule | collagen content of the lung (Sircol) ([1]; 30 mg/kg) | recruitment of fibrocytes into the lungs ([1]; 30 mg/kg, day 4, CD45+ CXCR4+ Col 1+ cells) | pro-fibrotic gene expression in treated eyes ([2]; PCR gene array) | contraction of the lasered retinal regions [2, 6] | pathological angiogenesis / lesion size [2, 6] | Calcium Inhibition EC50 (CXCR4 [3]) | IC50 (CXCR4 [4]) [nM] | recruitment of fibrocytes into the lungs ([1]; 1 mg/Kg, day 4) | recruitment of fibrocytes into the lungs ([1]; day 4, dose not given) | Kd [5, 7] | dissociation rate constant (kd) [5, 7] | dissociation rate constant (kd) ([5]; off-rate, CXCR4 expressed on lipoparticles (Table 3)) | CCR4 activity (CCR4) [%] |
| --- | --- | --- | --- | --- | --- | --- | --- | --- | --- | --- | --- | --- | --- |
| AM3-114: affinity matured CXCR4 i-body, SEQ ID NO: 40 | reduced the collagen content | dramatically attenuate | extensive down regulation of pro fibrotic genes | significant reduction in the contraction | reduction of the lesion size | – | – | – | – | – | – | – | – |
| B1 | reduced the collagen content | – | – | – | – | uM | 225 | block recruitment of fibrocytes | significantly attenuate | 9.47 nM and 8.53 nM | 9150 M⁻¹ s⁻¹ and 8610 M⁻¹ s⁻¹ | 0.00998 | −2 |
